# Experimental data: US20100298227A1 (published 2010)
# How the values were obtained:
# [1] = target: Detergent-soluble HLA-DR1 purified from LG-2 cells (DRB1*0101) (human)
# [2] = target: Detergent-soluble HLA-DR2 purified from MGAR cells (DRB1*1501) (human)
# [3] = target: Detergent-soluble HLA-DR4 purified from Priess cells (DRB1*0401) (human)
# [4] = target: Detergent-soluble HLA-DR1 purified from LG-2 cells (DRB1*0101) (human); experiment: competition with biotinylated TAL for purified HLA-DR; competitor TAL
# [5] = target: Detergent-soluble HLA-DR2 purified from MGAR cells (DRB1*1501) (human); experiment: as above
# [6] = target: Detergent-soluble HLA-DR4 purified from Priess cells (DRB1*0401) (human); experiment: as above
Molecule,IC50 [1] [µM],IC50 [2] [µM],Kd [2] [µM],IC50 [3] [µM],Kd [3] [µM],Kd [1] [µM],fold amount of superantigen needed to inhibit TAL binding [4] [fold],fold amount of superantigen needed to inhibit TAL binding [5] [fold],fold amount of superantigen needed to inhibit TAL binding [6] [fold]
"GAL terpolymer (SD-1689), poly[L-Glu 0.153, L-Ala 0.479, L-Lys 0.365]",< 1000,< 1000,0.017,< 1000,0.003,–,–,–,–
"TAL terpolymer (SD-1691), poly[L-Tyr 0.102, L-Ala 0.542, L-Lys 0.353]",3.3,2.7,0.017,–,–,–,–,–,–
"TGA terpolymer (SD-1690), poly[L-Tyr 0.136, L-Glu 0.21, L-Ala 0.648]",1.3,9.5,0.008,1,0.008,0.01,–,–,–
Copolymer 1,8.8,10.1,0.082,10.8,0.015,0.074,–,–,–
"GTL terpolymer (SD-1697), poly[L-Tyr 0.162, L-Glu 0.259, L-Lys 0.579]",43,25.4,–,43,0.008,0.004,–,–,–
bacterial superantigen TSST-1 (other) STNDNIKDLLDWYSSGSDTFTNSEVLDNSLGSMRIKNTDGSISLIIFPSPYYSPAFTKGEKVDLNTKRTKKSQHTSEGTYIHFQISGVTNTEKLPTPIELPLKVKVHGKDSPLKYGPKFDKKQLAISTLDFEIRHQLTQIHGLYRSSDKTGGYWKITMNDGSTYQSDLSKKFEYNTEKPPINIDEIKTIEAEIN,–,–,–,–,–,–,50,50,50
bacterial superantigen SEB (other) ESQPDPKPDELHKSSKFTGLMENMKVLYDDNHVSAINVKSIDQFLYFDLIYSIKDTKLGNYDNVRVEFKNKDLADKYKDKYVDVFGANYYYQCYFSKKTNDINSHQTDKRKTCMYGGVTEHNGNQLDKYRSITVRVFEDGKNLLSFDVQTNKKKVTAQELDYLTRHYLVKNKKLYEFNNSPYETGYIKFIENENSFWYDMMPAPGDKFDQSKYLMMYNDNKMVDSKDVKIEVYLTTKKK,–,–,–,–,–,–,50,50,50
bacterial superantigen SEA (other) SEKSEEINEKDLRKKSELQGTALGNLKQIYYYNEKAKTENKESHDQFLQHTILFKGFFTDHSWYNDLLVDFDSKDIVDKYKGKKVDLYGAYYGYQCAGGTPNKTACMYGGVTLHDNNRLTEEKKVPINLWLDGKQNTVPLETVKTNKKNVTVQELDLQARRYLQEKYNLYNSDVFDGKVQRGLIVFHTSTEPSVNYDLFGAQGQYSNTLLRIYRDNKTINSENMHIDIYLYTS,–,–,–,–,–,–,50,50,50
